Key:
Assay in all cases: cell_activity
SeqID63 (WO2019/030695) = conditions: PAM TTTA
SuCms1 = conditions: PAM TTTA
[1] = system: T1, BEC10 (Artificial (engineered chimeric Cms1-like CRISPR nuclease)); conditions: no-spacer negative control; 30 C
T1 sequence: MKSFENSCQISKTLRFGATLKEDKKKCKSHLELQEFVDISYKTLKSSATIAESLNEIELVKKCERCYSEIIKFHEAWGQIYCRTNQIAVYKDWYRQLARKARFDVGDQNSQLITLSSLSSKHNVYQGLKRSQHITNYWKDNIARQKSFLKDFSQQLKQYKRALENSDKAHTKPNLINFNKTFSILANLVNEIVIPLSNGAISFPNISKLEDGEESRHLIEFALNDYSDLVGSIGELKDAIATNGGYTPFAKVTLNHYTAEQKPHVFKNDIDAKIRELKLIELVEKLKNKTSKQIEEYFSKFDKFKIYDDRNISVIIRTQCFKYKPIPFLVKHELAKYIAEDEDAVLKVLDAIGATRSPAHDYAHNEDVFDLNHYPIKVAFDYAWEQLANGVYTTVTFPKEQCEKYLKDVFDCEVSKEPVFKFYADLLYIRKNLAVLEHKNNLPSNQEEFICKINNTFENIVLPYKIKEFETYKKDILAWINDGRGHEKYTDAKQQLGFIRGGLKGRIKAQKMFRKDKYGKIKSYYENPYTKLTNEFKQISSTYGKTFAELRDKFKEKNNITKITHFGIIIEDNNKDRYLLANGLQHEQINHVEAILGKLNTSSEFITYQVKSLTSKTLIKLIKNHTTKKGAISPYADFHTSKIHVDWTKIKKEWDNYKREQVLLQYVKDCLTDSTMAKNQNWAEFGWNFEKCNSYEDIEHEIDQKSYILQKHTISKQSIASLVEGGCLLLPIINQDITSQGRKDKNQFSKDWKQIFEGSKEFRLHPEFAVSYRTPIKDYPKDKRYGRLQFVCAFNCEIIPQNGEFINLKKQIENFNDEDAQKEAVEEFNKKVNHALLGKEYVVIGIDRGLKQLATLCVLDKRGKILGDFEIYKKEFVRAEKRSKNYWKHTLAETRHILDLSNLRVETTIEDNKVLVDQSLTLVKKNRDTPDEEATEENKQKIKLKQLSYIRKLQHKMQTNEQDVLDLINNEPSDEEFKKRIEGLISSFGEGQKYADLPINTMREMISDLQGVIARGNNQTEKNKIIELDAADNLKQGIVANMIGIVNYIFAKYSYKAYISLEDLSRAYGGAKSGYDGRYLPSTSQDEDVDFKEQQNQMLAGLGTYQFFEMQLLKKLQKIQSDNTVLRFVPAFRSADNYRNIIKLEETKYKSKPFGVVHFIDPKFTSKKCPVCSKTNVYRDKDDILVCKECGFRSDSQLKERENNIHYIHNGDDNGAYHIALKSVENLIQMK

[2] = system: T2, BEC67 (Artificial (engineered chimeric Cms1-like CRISPR nuclease)); conditions: no-spacer negative control; 30 C
T2 sequence: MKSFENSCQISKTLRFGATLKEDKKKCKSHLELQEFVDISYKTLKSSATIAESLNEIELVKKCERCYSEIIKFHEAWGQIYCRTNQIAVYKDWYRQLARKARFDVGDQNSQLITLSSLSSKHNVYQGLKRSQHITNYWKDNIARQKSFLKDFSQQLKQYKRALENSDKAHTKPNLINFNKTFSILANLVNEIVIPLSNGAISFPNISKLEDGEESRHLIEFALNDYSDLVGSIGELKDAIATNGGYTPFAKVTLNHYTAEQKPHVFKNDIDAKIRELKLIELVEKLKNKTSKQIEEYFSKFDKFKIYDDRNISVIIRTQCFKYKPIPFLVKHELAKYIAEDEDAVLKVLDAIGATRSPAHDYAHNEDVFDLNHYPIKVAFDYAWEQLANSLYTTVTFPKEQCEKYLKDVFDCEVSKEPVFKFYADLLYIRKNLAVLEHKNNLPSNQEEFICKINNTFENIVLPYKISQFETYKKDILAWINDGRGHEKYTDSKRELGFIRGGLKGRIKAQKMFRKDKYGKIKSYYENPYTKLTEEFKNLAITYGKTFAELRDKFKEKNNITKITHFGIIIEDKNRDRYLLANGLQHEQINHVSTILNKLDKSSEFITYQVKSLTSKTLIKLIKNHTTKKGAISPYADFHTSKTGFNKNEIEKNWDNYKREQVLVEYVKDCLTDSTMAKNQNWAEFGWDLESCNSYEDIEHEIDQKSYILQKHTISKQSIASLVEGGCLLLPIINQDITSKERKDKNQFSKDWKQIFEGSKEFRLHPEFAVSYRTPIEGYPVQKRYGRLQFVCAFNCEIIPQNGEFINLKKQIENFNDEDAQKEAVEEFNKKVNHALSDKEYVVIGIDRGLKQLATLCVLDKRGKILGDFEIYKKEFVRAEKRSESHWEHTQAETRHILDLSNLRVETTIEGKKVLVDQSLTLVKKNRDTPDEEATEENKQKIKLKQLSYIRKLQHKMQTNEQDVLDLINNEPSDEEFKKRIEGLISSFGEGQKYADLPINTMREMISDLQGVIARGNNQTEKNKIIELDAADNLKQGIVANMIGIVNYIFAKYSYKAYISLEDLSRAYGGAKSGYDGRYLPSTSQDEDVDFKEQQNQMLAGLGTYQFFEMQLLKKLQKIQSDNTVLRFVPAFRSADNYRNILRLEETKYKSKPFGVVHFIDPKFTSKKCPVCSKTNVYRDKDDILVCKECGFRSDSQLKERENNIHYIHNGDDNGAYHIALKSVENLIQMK

[3] = system: T3, BEC85 (Artificial (engineered chimeric Cms1-like CRISPR nuclease)); conditions: no-spacer negative control; 30 C
T3 sequence: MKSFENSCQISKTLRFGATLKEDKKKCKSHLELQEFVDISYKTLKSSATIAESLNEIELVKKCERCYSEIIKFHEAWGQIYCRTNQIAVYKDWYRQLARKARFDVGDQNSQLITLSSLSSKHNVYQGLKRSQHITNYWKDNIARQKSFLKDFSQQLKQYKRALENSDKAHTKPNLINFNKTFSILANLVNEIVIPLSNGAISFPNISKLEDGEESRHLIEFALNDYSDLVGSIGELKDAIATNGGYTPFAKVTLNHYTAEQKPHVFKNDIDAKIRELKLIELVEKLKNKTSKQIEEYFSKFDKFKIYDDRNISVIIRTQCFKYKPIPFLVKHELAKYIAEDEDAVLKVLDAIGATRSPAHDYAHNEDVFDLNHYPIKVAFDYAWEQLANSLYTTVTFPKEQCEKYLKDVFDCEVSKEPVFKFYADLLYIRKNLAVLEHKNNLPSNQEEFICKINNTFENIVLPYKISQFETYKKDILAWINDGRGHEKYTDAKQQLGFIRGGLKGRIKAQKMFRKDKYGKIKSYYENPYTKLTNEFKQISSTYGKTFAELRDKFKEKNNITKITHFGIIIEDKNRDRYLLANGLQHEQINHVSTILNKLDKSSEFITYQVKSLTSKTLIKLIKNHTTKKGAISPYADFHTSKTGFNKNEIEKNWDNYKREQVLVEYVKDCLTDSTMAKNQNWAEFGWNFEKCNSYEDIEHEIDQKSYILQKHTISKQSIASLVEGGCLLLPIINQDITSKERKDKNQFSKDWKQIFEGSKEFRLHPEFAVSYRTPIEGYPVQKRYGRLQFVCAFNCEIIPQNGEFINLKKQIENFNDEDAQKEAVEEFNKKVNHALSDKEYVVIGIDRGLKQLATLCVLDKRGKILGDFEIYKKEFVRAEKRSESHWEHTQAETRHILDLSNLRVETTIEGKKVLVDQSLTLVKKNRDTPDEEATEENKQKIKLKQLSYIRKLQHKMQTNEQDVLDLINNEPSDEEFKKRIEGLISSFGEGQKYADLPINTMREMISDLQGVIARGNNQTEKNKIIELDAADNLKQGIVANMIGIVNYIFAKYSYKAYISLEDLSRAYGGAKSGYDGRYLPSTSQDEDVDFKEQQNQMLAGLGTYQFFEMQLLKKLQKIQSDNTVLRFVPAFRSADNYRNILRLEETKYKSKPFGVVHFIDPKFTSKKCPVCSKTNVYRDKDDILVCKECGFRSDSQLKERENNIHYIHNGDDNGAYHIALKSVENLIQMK

With “rpoB gRNA for Cms1 comparators ; rpoB target” the activity (% colony reduction) (SeqID63 (WO2019/030695); E. coli depletion assay 37 C) was 0 and the activity (% colony reduction) (SuCms1; E. coli depletion assay 37 C) was 72.
With “gRNA cassette without spacer ; Ade2 target” the activity (% editing efficiency) [1] was 0.2, the activity (% editing efficiency) [2] was 0.2 and the activity (% editing efficiency) [3] was 0.2.
For “Ade2 gRNA for Cms1 comparators ; Ade2 target”, the activity (% editing efficiency) (SeqID63 (WO2019/030695); S. cerevisiae 21 C) was 0.2, the activity (% editing efficiency) (SeqID63 (WO2019/030695); S. cerevisiae 30 C, comparable to negative control) was 0.2 and the activity (% editing efficiency) (SuCms1; S. cerevisiae 21 C, near negative control) was 0.3. The activity (% editing efficiency) (SuCms1; S. cerevisiae 30 C, 3% fully edited) was 5.

— patent US20230287372
